Assays:
[1] = biological target: c-Met/Fc (UniProt P08581); experiment: filter; settings: 2'-F pyrimidines
[2] = biological target: VEGFR2 (KDR) extracellular domain/Fc (Homo sapiens) (UniProt P35968); experiment: filter; settings: 2'-F pyrimidines
[3] = biological target: VEGFR1 (Flt-1) extracellular domain/Fc (UniProt P17948); experiment: filter; settings: 2'-F pyrimidines; HBSMC, 37 C
[4] = biological target: VEGF receptors on HUVEC (VEGFR2/KDR) (Homo sapiens) (UniProt P35968); experiment: competition; settings: 2'-F pyrimidines; inhibition of 125I-VEGF-165 binding to HUVEC
VEGF receptors on HUVEC (VEGFR2/KDR) (Homo sapiens), sequence (P35968 20-1356): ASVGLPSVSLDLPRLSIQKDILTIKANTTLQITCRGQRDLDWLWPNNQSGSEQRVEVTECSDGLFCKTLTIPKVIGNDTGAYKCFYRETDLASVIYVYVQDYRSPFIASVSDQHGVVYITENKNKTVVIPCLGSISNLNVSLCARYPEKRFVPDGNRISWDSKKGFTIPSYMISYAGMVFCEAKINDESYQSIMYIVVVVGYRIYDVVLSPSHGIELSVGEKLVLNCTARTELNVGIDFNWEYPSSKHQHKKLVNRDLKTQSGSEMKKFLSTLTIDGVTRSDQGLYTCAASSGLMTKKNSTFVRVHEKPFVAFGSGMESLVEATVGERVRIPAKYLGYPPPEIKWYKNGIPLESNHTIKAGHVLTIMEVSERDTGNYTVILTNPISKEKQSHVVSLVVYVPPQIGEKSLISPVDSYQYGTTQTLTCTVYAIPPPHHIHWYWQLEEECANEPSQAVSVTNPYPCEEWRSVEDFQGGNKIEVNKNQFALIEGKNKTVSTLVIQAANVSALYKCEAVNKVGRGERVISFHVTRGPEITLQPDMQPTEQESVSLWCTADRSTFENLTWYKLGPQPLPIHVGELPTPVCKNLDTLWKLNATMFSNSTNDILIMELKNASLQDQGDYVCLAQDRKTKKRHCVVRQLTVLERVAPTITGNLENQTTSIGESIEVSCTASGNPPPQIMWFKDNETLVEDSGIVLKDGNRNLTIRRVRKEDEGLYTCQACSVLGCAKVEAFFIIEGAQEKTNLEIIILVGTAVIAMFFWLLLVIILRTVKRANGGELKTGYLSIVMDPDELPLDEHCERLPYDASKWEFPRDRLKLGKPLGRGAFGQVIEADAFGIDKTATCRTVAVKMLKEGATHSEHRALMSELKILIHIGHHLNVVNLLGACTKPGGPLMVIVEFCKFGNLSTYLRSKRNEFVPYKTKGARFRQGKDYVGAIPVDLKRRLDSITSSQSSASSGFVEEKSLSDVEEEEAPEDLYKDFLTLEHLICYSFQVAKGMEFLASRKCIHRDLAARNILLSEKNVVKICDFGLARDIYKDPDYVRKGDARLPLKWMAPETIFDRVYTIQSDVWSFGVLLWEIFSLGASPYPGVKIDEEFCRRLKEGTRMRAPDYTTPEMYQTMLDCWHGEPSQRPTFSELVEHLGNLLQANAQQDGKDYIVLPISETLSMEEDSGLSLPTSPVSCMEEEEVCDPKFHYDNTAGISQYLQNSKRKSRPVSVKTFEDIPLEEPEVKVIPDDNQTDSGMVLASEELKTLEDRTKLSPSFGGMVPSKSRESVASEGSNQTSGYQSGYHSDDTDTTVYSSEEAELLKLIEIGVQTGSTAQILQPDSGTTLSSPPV

VEGFR2 (KDR) extracellular domain/Fc (Homo sapiens), sequence (P35968 20-764): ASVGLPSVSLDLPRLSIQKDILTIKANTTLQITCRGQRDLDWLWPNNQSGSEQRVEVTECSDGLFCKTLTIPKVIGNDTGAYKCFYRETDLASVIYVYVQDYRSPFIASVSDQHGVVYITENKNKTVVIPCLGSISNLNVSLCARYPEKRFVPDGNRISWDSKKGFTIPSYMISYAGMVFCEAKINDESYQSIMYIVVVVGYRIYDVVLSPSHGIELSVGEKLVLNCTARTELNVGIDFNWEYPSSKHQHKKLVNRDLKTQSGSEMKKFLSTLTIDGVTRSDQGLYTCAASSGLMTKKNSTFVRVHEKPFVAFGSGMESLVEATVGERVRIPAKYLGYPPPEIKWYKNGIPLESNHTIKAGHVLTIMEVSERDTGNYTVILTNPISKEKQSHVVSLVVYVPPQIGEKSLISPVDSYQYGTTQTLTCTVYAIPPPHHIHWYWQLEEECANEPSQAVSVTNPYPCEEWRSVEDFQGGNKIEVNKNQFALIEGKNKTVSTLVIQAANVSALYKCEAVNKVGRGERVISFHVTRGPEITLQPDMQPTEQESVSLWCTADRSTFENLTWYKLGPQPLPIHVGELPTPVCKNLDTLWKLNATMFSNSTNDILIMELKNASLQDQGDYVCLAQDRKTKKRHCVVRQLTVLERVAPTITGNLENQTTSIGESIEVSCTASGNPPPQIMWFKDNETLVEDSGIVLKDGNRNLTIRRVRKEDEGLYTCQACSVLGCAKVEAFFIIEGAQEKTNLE
VEGFR1 (Flt-1) extracellular domain/Fc, sequence (P17948 27-758): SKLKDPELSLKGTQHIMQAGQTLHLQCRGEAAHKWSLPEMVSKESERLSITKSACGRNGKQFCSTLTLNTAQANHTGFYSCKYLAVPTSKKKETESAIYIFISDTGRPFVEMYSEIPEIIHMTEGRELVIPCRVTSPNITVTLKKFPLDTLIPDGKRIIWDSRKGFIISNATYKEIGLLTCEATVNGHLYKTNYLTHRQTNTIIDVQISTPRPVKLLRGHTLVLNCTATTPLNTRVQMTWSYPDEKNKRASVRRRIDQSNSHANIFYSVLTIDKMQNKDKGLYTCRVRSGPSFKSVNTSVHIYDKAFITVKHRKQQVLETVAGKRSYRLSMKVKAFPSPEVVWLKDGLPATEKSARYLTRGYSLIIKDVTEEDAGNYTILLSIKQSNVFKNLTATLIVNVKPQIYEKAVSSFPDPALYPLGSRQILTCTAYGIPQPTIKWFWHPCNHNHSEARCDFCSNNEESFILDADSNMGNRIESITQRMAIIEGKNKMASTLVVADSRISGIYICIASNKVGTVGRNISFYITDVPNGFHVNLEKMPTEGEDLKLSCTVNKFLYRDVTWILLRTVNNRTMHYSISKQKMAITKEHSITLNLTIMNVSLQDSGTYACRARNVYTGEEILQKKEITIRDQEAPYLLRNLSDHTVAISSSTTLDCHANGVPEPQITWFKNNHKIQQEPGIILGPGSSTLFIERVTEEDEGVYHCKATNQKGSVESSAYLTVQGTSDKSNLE
c-Met/Fc, sequence (P08581 25-932): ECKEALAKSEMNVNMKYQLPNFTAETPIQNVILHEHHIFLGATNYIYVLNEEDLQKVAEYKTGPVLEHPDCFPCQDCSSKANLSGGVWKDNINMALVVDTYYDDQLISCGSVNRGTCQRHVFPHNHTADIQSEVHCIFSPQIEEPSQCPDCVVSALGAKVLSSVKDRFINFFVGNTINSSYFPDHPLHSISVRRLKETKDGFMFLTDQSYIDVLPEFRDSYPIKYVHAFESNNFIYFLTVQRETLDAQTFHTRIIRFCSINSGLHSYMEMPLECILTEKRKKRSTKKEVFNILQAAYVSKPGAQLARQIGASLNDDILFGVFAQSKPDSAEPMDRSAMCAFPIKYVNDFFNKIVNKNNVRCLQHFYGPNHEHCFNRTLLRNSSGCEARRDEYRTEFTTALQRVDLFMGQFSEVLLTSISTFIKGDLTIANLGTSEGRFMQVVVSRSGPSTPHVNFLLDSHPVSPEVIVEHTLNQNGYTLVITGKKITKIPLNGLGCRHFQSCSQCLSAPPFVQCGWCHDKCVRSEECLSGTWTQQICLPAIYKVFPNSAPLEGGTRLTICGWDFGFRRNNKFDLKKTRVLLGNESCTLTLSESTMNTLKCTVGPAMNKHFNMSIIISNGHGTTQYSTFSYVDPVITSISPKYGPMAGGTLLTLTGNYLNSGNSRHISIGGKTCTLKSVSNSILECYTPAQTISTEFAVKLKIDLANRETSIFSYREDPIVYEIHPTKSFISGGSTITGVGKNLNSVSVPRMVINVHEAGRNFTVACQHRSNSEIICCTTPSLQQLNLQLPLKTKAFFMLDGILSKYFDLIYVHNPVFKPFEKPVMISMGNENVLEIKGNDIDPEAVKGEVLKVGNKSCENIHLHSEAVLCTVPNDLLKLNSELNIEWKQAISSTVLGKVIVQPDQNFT

In the case of “GGGAGGACGAUGCGGNNNNNNNNNNNNNNNNNNNNNNNNNNNNNNNNNNNNNNNNCAGACGACUCGCCCGA [KDR SELEX round 5 pool]”, the Kd ([1]; specificity control for Fc binding) is reported as 74000 pM, the Kd ([2]; HBSMC, 37 C) is reported as 830 pM and the Kd ([2]; comparison with cMet/Fc) is reported as 760 pM.

With “GGGAGGACGAUGCGGNNNNNNNNNNNNNNNNNNNNNNNNNNNNNNNNNNNNNNNNCAGACGACUCGCCCGA [KDR SELEX round 2 pool]” the Kd ([2]; HBSMC, 37 C) was 680 pM.

“GGGAGGACGAUGCGGNNNNNNNNNNNNNNNNNNNNNNNNNNNNNNNNNNNNNNNNCAGACGACUCGCCCGA [KDR SELEX round 6 pool]” showed a Kd ([2]; HBSMC (Mg, Ca), 37 C) of 440 pM.

For “GGGAGGACGAUGCGGNNNNNNNNNNNNNNNNNNNNNNNNNNNNNNNNNNNNNNNNCAGACGACUCGCCCGA [Flt-1 SELEX round 5 pool]”, the Kd [3] was 93 pM.

“GGGAGGACGAUGCGGNNNNNNNNNNNNNNNNNNNNNNNNNNNNNNNNNNNNNNNNCAGACGACUCGCCCGA [40N7 starting random library (round 0)]” gave a Kd ([1]; specificity control) of 58000 pM, a Kd ([2]; HBSMC, 37 C) of 36000 pM and a Kd ([2]; as printed, differs from 36 ± 3 nM in Table 1 legend) of 361000 pM. It also gave a Kd [3] of 200 pM.

“GGGAGGACGAUGCGGAUCAUACCGGGUCAUAACACCGNUCACGGGGCCUUNUCGUCAGACGACUCGCCCGA [K24]” showed a Kd ([2]; circularly permuted family member) of 970 pM.

For “GGGAGGACGAUGCGGACANAUAACACAGGGCCUGCUUGGAUCACACUGAUUGCGCCCAGACGACUCGCCCGA [K17]”, the Kd [2] was 240 pM and the IC50 [4] was 163000 pM.

With “GGGAGGACGAUGCGGAGCACUUGACCCACNACCAGAAAGCCAGCCCAGACGACUCGCCCGA [K6]” the Kd ([2]; 30N clone) was 980 pM.

Sequence “GGGAGGACGAUGCGGNNNNNNNNNNNNNNNNNNNNNNNNNNNNNNNNNNNNNNNNCAGACGACUCGCCCGA [KDR SELEX round 3 pool]” has a Kd ([2]; HBSMC, 37 C) of 800 pM.

For “GGGAGGACGAUGCGGNNNNNNNNNNNNNNNNNNNNNNNNNNNNNNNNNNNNNNNNCAGACGACUCGCCCGA [KDR SELEX round 4 pool]”, the Kd ([2]; HBSMC, 37 C) was 581 pM.
